{
  "source": "patent US20050026285A1",
  "about": "(Harvard, published 2005)",
  "molecules": {"B1": {"name": "endogenous c-Jun of Jurkat T cells (other, human, UniProt P05412 1-331, looked up)", "chain": "MTAKMETTFYDDALNASFLPSESGPYGYSNPKILKQSMTLNLADPVGSLKPHLRAKNSDLLTSPDVGLLKLASPELERLIIQSSNGHITTTPTPTQFLCPKNVTDEQEGFAEGFVRALAELHSQNTLPSVTSAAQPVNGAGMVAPAVASVAGGSGSGGFSASLHSEPPVYANLSNFNPGALSSGGGAPSYGAAGLAFPAQPQQQQQPPHHLPQQMPVQHPRLQALKEEPQTVPEMPGETPPLSPIDMESQERIKAERKRMRNRIAASKCRKRKLERIARLEEKVKTLKAQNSELASTANMLREQVAQLKQKVMNHVNSGCQLMLTQQLQTF", "notes": "also called AP-1 complexes"}, "B2": {"name": "endogenous c-Jun of EL4 T cells (other, UniProt P05627 1-334, looked up)", "chain": "MTAKMETTFYDDALNASFLQSESGAYGYSNPKILKQSMTLNLADPVGSLKPHLRAKNSDLLTSPDVGLLKLASPELERLIIQSSNGHITTTPTPTQFLCPKNVTDEQEGFAEGFVRALAELHSQNTLPSVTSAAQPVSGAGMVAPAVASVAGAGGGGGYSASLHSEPPVYANLSNFNPGALSSGGGAPSYGAAGLAFPSQPQQQQQPPQPPHHLPQQIPVQHPRLQALKEEPQTVPEMPGETPPLSPIDMESQERIKAERKRMRNRIAASKCRKRKLERIARLEEKVKTLKAQNSELASTANMLREQVAQLKQKVMNHVNSGCQLMLTQQLQTF", "notes": "also called AP-1 complexes"}},
  "key": {"[1]": {"molecular_target": "c-Jun/c-Fos AP-1 complex", "experiment": "cell-based or functional assay"}, "[2]": {"molecular_target": "c-Jun (recombinant: overexpressed in 293T cells or in vitro translated)", "experiment": "cell-based or functional assay"}, "[3]": {"molecular_target": "T1, endogenous KRC of Jurkat T cells (human, UniProt Q5T1R4 1-2406, limits assumed)", "T1 construct": "Detected with anti-KRC rabbit antisera in anti-c-Jun immunoprecipitates", "T1 sequence (Q5T1R4 whole entry)": "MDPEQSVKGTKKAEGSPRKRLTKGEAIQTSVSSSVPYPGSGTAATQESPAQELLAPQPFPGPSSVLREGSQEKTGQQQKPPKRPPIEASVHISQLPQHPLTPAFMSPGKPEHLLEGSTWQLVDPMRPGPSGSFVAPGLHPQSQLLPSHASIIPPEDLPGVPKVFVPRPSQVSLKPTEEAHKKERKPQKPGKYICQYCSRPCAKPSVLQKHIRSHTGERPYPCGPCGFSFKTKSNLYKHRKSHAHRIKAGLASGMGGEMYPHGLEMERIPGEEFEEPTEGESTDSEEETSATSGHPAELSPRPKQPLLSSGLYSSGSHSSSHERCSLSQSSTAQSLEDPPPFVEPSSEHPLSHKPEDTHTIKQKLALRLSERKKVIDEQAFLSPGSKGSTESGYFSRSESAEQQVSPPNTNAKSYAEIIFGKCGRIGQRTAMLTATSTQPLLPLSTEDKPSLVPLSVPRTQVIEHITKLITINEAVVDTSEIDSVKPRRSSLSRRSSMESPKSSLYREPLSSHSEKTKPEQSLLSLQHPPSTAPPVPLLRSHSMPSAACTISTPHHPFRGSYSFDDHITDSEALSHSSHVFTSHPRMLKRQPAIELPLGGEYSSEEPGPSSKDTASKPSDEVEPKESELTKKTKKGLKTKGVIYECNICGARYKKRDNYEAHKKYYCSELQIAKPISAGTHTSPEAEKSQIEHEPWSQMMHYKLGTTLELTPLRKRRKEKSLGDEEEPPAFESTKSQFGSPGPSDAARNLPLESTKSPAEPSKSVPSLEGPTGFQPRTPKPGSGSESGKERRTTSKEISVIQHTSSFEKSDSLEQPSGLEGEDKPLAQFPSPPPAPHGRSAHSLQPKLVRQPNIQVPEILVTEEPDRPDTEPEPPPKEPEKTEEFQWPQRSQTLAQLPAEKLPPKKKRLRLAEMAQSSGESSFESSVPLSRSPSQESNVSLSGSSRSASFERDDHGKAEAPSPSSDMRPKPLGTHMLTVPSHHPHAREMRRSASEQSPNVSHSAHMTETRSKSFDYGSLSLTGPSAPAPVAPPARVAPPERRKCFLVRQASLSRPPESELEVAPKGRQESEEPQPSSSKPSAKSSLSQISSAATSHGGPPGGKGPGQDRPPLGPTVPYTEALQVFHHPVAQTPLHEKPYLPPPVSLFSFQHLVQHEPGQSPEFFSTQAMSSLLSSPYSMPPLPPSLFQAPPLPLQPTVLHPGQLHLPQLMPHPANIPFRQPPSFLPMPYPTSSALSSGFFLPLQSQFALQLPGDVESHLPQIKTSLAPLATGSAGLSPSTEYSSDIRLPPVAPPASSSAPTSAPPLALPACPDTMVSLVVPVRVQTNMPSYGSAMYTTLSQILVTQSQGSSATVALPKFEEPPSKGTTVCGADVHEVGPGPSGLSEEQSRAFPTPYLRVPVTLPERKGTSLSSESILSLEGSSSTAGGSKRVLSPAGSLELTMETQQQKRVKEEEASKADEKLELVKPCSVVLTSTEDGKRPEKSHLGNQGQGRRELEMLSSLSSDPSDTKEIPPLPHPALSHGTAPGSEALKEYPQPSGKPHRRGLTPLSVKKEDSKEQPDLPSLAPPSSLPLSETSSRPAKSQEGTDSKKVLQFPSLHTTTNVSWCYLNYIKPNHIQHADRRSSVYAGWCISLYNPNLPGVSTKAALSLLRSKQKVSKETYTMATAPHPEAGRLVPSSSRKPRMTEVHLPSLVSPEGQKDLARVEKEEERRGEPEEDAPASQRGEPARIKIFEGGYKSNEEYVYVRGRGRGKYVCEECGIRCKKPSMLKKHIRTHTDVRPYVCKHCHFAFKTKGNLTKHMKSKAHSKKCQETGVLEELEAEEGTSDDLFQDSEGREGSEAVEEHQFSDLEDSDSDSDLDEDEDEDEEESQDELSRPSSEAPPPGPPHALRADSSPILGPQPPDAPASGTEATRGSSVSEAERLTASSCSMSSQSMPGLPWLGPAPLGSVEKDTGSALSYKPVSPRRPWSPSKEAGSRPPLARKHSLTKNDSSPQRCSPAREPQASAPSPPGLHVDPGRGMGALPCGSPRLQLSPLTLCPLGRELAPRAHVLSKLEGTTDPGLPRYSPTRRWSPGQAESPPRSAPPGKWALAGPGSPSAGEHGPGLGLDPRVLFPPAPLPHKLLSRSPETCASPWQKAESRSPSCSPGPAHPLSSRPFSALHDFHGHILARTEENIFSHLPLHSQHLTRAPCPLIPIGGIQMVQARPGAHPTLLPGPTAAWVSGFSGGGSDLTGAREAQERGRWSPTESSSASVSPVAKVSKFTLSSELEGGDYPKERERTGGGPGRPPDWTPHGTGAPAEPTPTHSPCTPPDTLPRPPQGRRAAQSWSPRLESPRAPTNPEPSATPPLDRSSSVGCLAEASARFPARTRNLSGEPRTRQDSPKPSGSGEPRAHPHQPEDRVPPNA", "experiment": "anti-c-Jun IP from PMA/ionomycin-stimulated Jurkat cells, blot with anti-KRC antisera", "experimental": "(§1) FIG. 21(A) 293T cells were transfected with c-Jun and myc-KRCtr. 48 hours later, lysates were immunoprecipitated with anti-Myc antibody. Immunoprecipitates were probed by western blotting with anti-c-Jun antibody. FIG. 21(B) (left panel) 293T cells were cotransfected with c-Jun and full length His-KRC. 48 hours later, lysates were immunoprecipitated with anti-His antibody (DE8 Omniprobe) and precipitates were probed by western blotting with anti-c-Jun antibody. (right panel) In vitro translated and S35-labelled c-Jun and His-KRCtr were mixed and immunoprecipitated with anti-His antibody. Recovered c-Jun protein was visualized by autoradiography. FIG. 21(C) Jurkat or EL4 T cells were stimulated with PMA plus ionomycin for 45 minutes. Lysates were immunoprecipitated with anti-c-Jun antibody, and immunoprecipitates were probed with specific anti-KRC rabbit antisera. FIG. 21(D) (upper panel) 293T cells were transfected with AP-1 Luciferase along with c-Jun, c-Fos, and KRC. 24 hours later, Luciferase activity was determined as above. […] 24 hours later, luciferase activity was determined as above. […]"}, "[4]": {"molecular_target": "endogenous KRC of EL4 T cells (UniProt A2A884 1-2348, limits assumed)", "sequence (A2A884 whole entry)": "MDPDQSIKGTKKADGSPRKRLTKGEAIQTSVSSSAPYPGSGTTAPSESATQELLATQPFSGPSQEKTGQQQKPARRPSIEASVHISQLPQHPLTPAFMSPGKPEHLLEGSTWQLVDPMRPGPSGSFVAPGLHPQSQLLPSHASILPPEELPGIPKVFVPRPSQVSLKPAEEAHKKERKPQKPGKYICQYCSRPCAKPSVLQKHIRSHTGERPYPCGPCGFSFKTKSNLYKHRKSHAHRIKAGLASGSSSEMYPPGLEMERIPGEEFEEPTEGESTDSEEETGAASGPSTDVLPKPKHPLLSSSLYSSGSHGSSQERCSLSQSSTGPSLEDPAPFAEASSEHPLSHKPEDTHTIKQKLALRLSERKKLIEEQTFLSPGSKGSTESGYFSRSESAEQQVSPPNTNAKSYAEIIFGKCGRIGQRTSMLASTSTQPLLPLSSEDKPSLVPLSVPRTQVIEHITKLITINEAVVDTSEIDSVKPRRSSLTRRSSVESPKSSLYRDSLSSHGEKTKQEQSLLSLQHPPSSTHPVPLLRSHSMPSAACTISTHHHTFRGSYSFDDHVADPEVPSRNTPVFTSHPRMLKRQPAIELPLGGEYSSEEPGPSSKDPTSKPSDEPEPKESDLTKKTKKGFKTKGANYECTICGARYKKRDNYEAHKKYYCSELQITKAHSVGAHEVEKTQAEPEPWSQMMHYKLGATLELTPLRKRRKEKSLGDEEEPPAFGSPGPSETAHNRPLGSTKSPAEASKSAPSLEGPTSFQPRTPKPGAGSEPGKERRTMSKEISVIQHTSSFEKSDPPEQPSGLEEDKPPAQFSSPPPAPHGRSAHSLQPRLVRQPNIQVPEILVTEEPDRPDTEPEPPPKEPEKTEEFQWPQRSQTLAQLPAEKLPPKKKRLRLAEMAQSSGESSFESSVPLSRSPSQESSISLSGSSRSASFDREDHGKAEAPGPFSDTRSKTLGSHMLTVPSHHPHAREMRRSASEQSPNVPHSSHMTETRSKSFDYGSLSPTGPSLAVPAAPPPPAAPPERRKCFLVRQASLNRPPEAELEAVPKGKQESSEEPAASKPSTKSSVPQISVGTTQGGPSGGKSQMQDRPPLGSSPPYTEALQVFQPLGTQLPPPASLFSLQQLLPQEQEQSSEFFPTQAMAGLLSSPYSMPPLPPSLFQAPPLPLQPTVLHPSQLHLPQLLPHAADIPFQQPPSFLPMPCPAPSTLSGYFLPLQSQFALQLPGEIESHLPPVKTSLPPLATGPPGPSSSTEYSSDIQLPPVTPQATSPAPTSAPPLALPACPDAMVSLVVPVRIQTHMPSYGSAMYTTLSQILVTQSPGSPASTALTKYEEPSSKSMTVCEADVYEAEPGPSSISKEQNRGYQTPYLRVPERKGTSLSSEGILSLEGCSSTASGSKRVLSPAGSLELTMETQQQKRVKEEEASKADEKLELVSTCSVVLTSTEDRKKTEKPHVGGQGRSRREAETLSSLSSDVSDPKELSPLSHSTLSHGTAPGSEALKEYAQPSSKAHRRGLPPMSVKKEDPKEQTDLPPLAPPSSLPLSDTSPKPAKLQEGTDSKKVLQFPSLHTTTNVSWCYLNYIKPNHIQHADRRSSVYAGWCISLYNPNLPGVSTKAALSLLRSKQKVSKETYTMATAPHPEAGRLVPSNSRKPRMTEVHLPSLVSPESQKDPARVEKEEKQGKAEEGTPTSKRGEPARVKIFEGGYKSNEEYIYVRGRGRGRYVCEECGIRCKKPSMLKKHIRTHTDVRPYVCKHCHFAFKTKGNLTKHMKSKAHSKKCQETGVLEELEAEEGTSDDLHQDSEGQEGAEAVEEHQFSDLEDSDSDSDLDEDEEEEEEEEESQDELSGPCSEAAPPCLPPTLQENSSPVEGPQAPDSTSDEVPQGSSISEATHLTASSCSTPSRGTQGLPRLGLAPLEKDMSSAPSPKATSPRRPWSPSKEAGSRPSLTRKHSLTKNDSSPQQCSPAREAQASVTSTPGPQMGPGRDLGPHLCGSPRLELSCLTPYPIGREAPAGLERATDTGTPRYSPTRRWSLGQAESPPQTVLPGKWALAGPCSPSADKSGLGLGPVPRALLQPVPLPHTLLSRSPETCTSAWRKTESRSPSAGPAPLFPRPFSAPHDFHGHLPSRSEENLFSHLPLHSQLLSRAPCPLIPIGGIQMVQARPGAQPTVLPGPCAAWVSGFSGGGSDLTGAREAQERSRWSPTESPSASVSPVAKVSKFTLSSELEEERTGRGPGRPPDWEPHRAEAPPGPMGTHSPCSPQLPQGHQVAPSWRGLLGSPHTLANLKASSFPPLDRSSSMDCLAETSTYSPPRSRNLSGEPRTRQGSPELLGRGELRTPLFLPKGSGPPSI", "experiment": "anti-c-Jun IP from PMA/ionomycin-stimulated EL4 cells, blot with anti-KRC antisera", "experimental": "as §1"}},
  "data": [
    {"molecule": "KRC (full-length, overexpressed; tag or construct not further specified), Q5T1R4 1-2406", "values": [
      {"measurement": "AP-1 luciferase reporter activity in 293T cells overexpressing c-Jun plus c-Fos", "setting": "[1]", "result": 5, "unit": "fold"},
      {"measurement": "AP-1 luciferase reporter activity in 293T cells overexpressing c-Jun", "setting": "[2]", "result": 5, "unit": "fold"}
    ]},
    {"molecule": "B1", "values": [
      {"measurement": "binding result", "setting": "[3]", "result": "binds"}
    ]},
    {"molecule": "B2", "values": [
      {"measurement": "binding result", "setting": "[4]", "result": "binds"}
    ]}
  ]
}
